Source: patent publication US20230183328A1

Assays:
[1] = target: CD32a (UniProt P12318); assay: CD32a binding assay; formulation F0, 25°C/1M
[2] = target: CD32a (UniProt P12318); assay: CD32a binding assay; formulation F13, 25°C/2M
[3] = target: CD32a (UniProt P12318); assay: CD32a binding assay; formulation F13, initial
[4] = target: antigen of the Antigen binding ELISA (not named; BAN2401 is described as binding human Aβ protofibrils) (UniProt P05067); assay: antigen binding ELISA; formulation F15, 25°C/2M
[5] = target: antigen of the Antigen binding ELISA (not named; BAN2401 is described as binding human Aβ protofibrils) (UniProt P05067); assay: antigen binding ELISA; formulation F15, 25°C/1M
[6] = target: CD32a (UniProt P12318); assay: CD32a binding assay; formulation F15, 25°C dark/7 D
[7] = target: CD32a (UniProt P12318); assay: CD32a binding assay; formulation F15, 25°C/1M
[8] = target: antigen of the Antigen binding ELISA (not named; BAN2401 is described as binding human Aβ protofibrils) (UniProt P05067); assay: antigen binding ELISA; formulation F18, freeze-thaw 3 cycles
[9] = target: CD32a (UniProt P12318); assay: CD32a binding assay; formulation F15, 5°C/2M
[10] = target: CD32a (UniProt P12318); assay: CD32a binding assay; formulation F18, freeze-thaw 3 cycles
[11] = target: antigen of the Antigen binding ELISA (not named; BAN2401 is described as binding human Aβ protofibrils) (UniProt P05067); assay: antigen binding ELISA; formulation F0, initial
[12] = target: antigen of the Antigen binding ELISA (not named; BAN2401 is described as binding human Aβ protofibrils) (UniProt P05067); assay: antigen binding ELISA; formulation F18, 5°C/2M
[13] = target: antigen of the Antigen binding ELISA (not named; BAN2401 is described as binding human Aβ protofibrils) (UniProt P05067); assay: antigen binding ELISA; formulation F18, 25°C/1M
[14] = target: antigen of the Antigen binding ELISA (not named; BAN2401 is described as binding human Aβ protofibrils) (UniProt P05067); assay: antigen binding ELISA; formulation F17, initial
[15] = target: CD32a (UniProt P12318); assay: CD32a binding assay; formulation F18, 25°C/2M
[16] = target: antigen of the Antigen binding ELISA (not named; BAN2401 is described as binding human Aβ protofibrils) (UniProt P05067); assay: antigen binding ELISA; formulation F0, 25°C/1M
[17] = target: CD32a (UniProt P12318); assay: CD32a binding assay; formulation F18, 5°C/2M
[18] = target: antigen of the Antigen binding ELISA (not named; BAN2401 is described as binding human Aβ protofibrils) (UniProt P05067); assay: antigen binding ELISA; formulation F15, initial
[19] = target: antigen of the Antigen binding ELISA (not named; BAN2401 is described as binding human Aβ protofibrils) (UniProt P05067); assay: antigen binding ELISA; formulation F18, initial
[20] = target: antigen of the Antigen binding ELISA (not named; BAN2401 is described as binding human Aβ protofibrils) (UniProt P05067); assay: antigen binding ELISA; formulation F13, 5°C/2M
[21] = target: CD32a (UniProt P12318); assay: CD32a binding assay; formulation F17, 25°C/2M
[22] = target: CD32a (UniProt P12318); assay: CD32a binding assay; formulation F18, 25°C 1000 lx/7 D
[23] = target: antigen of the Antigen binding ELISA (not named; BAN2401 is described as binding human Aβ protofibrils) (UniProt P05067); assay: antigen binding ELISA; formulation F17, 25°C/2M
[24] = target: CD32a (UniProt P12318); assay: CD32a binding assay; formulation F0, 25°C/1M; remark: listed apart in the source
[25] = target: antigen of the Antigen binding ELISA (not named; BAN2401 is described as binding human Aβ protofibrils) (UniProt P05067); assay: antigen binding ELISA; formulation F0, 25°C/2M
[26] = target: CD32a (UniProt P12318); assay: CD32a binding assay; formulation F17, initial
[27] = target: antigen of the Antigen binding ELISA (not named; BAN2401 is described as binding human Aβ protofibrils) (UniProt P05067); assay: antigen binding ELISA; formulation F17, 25°C/1M
[28] = target: antigen of the Antigen binding ELISA (not named; BAN2401 is described as binding human Aβ protofibrils) (UniProt P05067); assay: antigen binding ELISA; formulation F13, initial
[29] = target: CD32a (UniProt P12318); assay: CD32a binding assay; formulation F18, initial
[30] = target: antigen of the Antigen binding ELISA (not named; BAN2401 is described as binding human Aβ protofibrils) (UniProt P05067); assay: antigen binding ELISA; formulation F15, 25°C 1000 lx/7 D
[31] = target: antigen of the Antigen binding ELISA (not named; BAN2401 is described as binding human Aβ protofibrils) (UniProt P05067); assay: antigen binding ELISA; formulation F15, freeze-thaw 3 cycles
[32] = target: antigen of the Antigen binding ELISA (not named; BAN2401 is described as binding human Aβ protofibrils) (UniProt P05067); assay: antigen binding ELISA; formulation F18, 25°C/2M
[33] = target: antigen of the Antigen binding ELISA (not named; BAN2401 is described as binding human Aβ protofibrils) (UniProt P05067); assay: antigen binding ELISA; formulation F15, 25°C dark/7 D
[34] = target: CD32a (UniProt P12318); assay: CD32a binding assay; formulation F13, 5°C/2M
[35] = target: antigen of the Antigen binding ELISA (not named; BAN2401 is described as binding human Aβ protofibrils) (UniProt P05067); assay: antigen binding ELISA; formulation F0, 5°C/2M
[36] = target: CD32a (UniProt P12318); assay: CD32a binding assay; formulation F13, 25°C/1M
[37] = target: CD32a (UniProt P12318); assay: CD32a binding assay; formulation F15, 25°C 1000 lx/7 D
[38] = target: CD32a (UniProt P12318); assay: CD32a binding assay; formulation F17, 25°C/1M
[39] = target: CD32a (UniProt P12318); assay: CD32a binding assay; formulation F15, initial
[40] = target: CD32a (UniProt P12318); assay: CD32a binding assay; formulation F18, initial; remark: listed apart in the source
[41] = target: CD32a (UniProt P12318); assay: CD32a binding assay; formulation F17, 5°C/2M
[42] = target: antigen of the Antigen binding ELISA (not named; BAN2401 is described as binding human Aβ protofibrils) (UniProt P05067); assay: antigen binding ELISA; formulation F18, 25°C dark/7 D
[43] = target: CD32a (UniProt P12318); assay: CD32a binding assay; formulation F0, initial
[44] = target: antigen of the Antigen binding ELISA (not named; BAN2401 is described as binding human Aβ protofibrils) (UniProt P05067); assay: antigen binding ELISA; formulation F17, 5°C/2M
[45] = target: CD32a (UniProt P12318); assay: CD32a binding assay; formulation F18, 25°C/1M
[46] = target: CD32a (UniProt P12318); assay: CD32a binding assay; formulation F15, freeze-thaw 3 cycles
[47] = target: CD32a (UniProt P12318); assay: CD32a binding assay; formulation F0, 25°C/2M
[48] = target: CD32a (UniProt P12318); assay: CD32a binding assay; formulation F0, 5°C/2M
[49] = target: antigen of the Antigen binding ELISA (not named; BAN2401 is described as binding human Aβ protofibrils) (UniProt P05067); assay: antigen binding ELISA; formulation F13, 25°C/1M
[50] = target: antigen of the Antigen binding ELISA (not named; BAN2401 is described as binding human Aβ protofibrils) (UniProt P05067); assay: antigen binding ELISA; formulation F15, 5°C/2M
[51] = target: CD32a (UniProt P12318); assay: CD32a binding assay; formulation F18, 25°C dark/7 D
[52] = target: CD32a (UniProt P12318); assay: CD32a binding assay; formulation F15, 25°C/2M
[53] = target: antigen of the Antigen binding ELISA (not named; BAN2401 is described as binding human Aβ protofibrils) (UniProt P05067); assay: antigen binding ELISA; formulation F13, 25°C/2M
[54] = target: antigen of the Antigen binding ELISA (not named; BAN2401 is described as binding human Aβ protofibrils) (UniProt P05067); assay: antigen binding ELISA; formulation F18, 25°C 1000 lx/7 D

Chain of CD32a (P12318 36-218): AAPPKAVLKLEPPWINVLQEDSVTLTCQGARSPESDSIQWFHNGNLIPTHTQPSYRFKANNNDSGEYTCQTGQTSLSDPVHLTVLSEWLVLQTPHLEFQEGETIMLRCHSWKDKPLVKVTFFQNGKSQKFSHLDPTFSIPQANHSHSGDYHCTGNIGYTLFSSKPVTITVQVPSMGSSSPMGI

## BAN2401 (antibody)
[1]
  FcR (Binding assay (CD32a)): 95.5%
[2]
  FcR (Binding assay (CD32a)): 102%
[3]
  FcR (Binding assay (CD32a)): 101%
[4]
  ELISA (Antigen binding ELISA): 96.9%
[5]
  ELISA (Antigen binding ELISA): 104%
[6]
  FcR (Binding assay (CD32a)): 104%
[7]
  FcR (Binding assay (CD32a)): 98.3%
[8]
  ELISA (Antigen binding ELISA): 104%
[9]
  FcR (Binding assay (CD32a)): 99%
[10]
  FcR (Binding assay (CD32a)): 106%
[11]
  ELISA (Antigen binding ELISA): 101%
[12]
  ELISA (Antigen binding ELISA): 118%
[13]
  ELISA (Antigen binding ELISA): 97%
[14]
  ELISA (Antigen binding ELISA): 107%
[15]
  FcR (Binding assay (CD32a)): 92.9%
[16]
  ELISA (Antigen binding ELISA): 103%
[17]
  FcR (Binding assay (CD32a)): 94.7%
[18]
  ELISA (Antigen binding ELISA): 102%
[19]
  ELISA (Antigen binding ELISA): 108%
[20]
  ELISA (Antigen binding ELISA): 104%
[21]
  FcR (Binding assay (CD32a)): 105%
[22]
  FcR (Binding assay (CD32a)): 109%
[23]
  ELISA (Antigen binding ELISA): 102%
[24]
  FcR (Binding assay (CD32a)): 95.3%
[25]
  ELISA (Antigen binding ELISA): 91.8%
[26]
  FcR (Binding assay (CD32a)): 117%
[27]
  ELISA (Antigen binding ELISA): 107%
[28]
  ELISA (Antigen binding ELISA): 109%
[29]
  FcR (Binding assay (CD32a)): 106%
[30]
  ELISA (Antigen binding ELISA): 101%
[31]
  ELISA (Antigen binding ELISA): 108%
[32]
  ELISA (Antigen binding ELISA): 97.8%
[33]
  ELISA (Antigen binding ELISA): 107%
[34]
  FcR (Binding assay (CD32a)): 100%
[35]
  ELISA (Antigen binding ELISA): 103%
[36]
  FcR (Binding assay (CD32a)): 99.4%
[37]
  FcR (Binding assay (CD32a)): 118%
[38]
  FcR (Binding assay (CD32a)): 104%
[39]
  FcR (Binding assay (CD32a)): 109%
[40]
  FcR (Binding assay (CD32a)): 92.4%
[41]
  FcR (Binding assay (CD32a)): 103%
[42]
  ELISA (Antigen binding ELISA): 105%
[43]
  FcR (Binding assay (CD32a)): 91.7%
[44]
  ELISA (Antigen binding ELISA): 126%
[45]
  FcR (Binding assay (CD32a)): 91.9%
[46]
  FcR (Binding assay (CD32a)): 108%
[47]
  FcR (Binding assay (CD32a)): 93.5%
[48]
  FcR (Binding assay (CD32a)): 93.8%
[49]
  ELISA (Antigen binding ELISA): 104%
[50]
  ELISA (Antigen binding ELISA): 123%
[51]
  FcR (Binding assay (CD32a)): 105%
[52]
  FcR (Binding assay (CD32a)): 102%
[53]
  ELISA (Antigen binding ELISA): 107%
[54]
  ELISA (Antigen binding ELISA): 109%
